Measurements from patent publication US20070122429A1, “Designed antigens to elicit neutralizing antibodies against sterically restricted antigen and method of using same” (priority 2005, published 2007).
Where no end group is shown, it is not given here. MBP = not defined here

Assays:
[1] = molecular target: T1, HXB2 Env (Human immunodeficiency virus type 1 group M subtype B, UniProt P04578); type: cell-based, HIV-1; conditions: range over cell-cell fusion and viral infectivity assays
T1 construct: expressed in transfected cells; host or cells: Chinese hamster ovary cells expressing HXB2 Env, mixed with HeLa-CD4-LTR-β-galactosidase cells
Experimental: Cell-cell fusion was monitored. HXB2 Env-expressing Chinese hamster ovary cells were mixed with HeLa-CD4-LTR-β-galactosidase cells in the presence of inhibitors for 20 h at 37° C. Syncytia were stained with 5-bromo-4-chloro-3-indolyl-β-D-galactopyranoside (X-gal) and counted.
Viral infectivity was measured by the following method: pseudotyped viruses were produced by co-transfecting 293T cells using FuGENE (Roche Applied Science) with pNL4-3.Luc.R-E- and either pEBB-HXB2 or pEBB-JRFL. After 36-48 h, viral supernatants were collected and sterile filtered. HXB2 or JRFL pseudotyped virus was added to HOS-CD4-fusin or HOS-CD4-CCR5 cells, respectively, in the presence of inhibitors. HXB2 assays included 20 μg/ml DEAE-dextran. After 12 h, virus and inhibitor were removed and replaced with fresh media. Cells were lysed 40-44 h after infection using Glo lysis buffer (Promega), and luciferase activity was measured using Bright-Glo (Promega). IC50 values for both assays were calculated by fitting data to the equation, y=k/(1+[inhibitor]/IC50), where y is the normalized number of syncytia or luciferase activity and k is the scaling constant.

[2] = tested on: IZN36-MBP; assay: co-precipitation with biotinylated IZN36-MBP on streptavidin beads; type: binding; conditions: SDS-PAGE
Experimental: This mixture is then added to magnetic streptavidin beads (Dynal), which bind to the biotinylated IZN36-MBP.

## MBP-C37: Escherichia coli maltose-binding protein fused by Ser5Gly2 linker to C37 ({MBP}-SSSSSGGHTTWMEWDREINNYTSLIHSLIEESQNQQEKNEQELLHHHHHH; reading uncertain; also: fused to maltose-binding protein (not in chain))
[1]
  reduction in potency relative to C37: 75-228 fold
[2]
  binding to IZN36-MBP: reduced binding
